{"source": "paper PMC4298132", "key": {"[1]": {"target": "Ash2L SPRY domain (UniProt Q9UBL3)", "sequence (Q9UBL3 380-598)": "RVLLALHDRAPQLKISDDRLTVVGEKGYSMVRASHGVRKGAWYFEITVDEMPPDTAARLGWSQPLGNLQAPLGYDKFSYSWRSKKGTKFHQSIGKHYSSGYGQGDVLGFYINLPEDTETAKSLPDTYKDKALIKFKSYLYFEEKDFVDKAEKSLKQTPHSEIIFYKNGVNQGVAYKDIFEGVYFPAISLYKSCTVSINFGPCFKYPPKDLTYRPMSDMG", "assay": "isothermal titration calorimetry", "conditions": "reference: unmodified RbBP5 344-357 peptide; sites S350"}, "[2]": {"target": "His-SUMO-tagged MLL3 SET domain (UniProt Q8NEZ4)", "sequence (Q8NEZ4 4771-4887)": "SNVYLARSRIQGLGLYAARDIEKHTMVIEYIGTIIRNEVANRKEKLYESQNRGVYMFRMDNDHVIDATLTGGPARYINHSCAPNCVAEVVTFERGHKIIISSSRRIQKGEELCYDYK", "assay": "pull-down"}, "[3]": {"target": "Ash2L SPRY domain", "assay": "ITC"}}, "note": "Square brackets hold non-standard residues; d marks the D form. Ends that are not written are not given here. pS = N[C@@H](COP(=O)(O)O)C(=O)O", "data": [{"molecule": "RbBP5 344-357 (from UniProt Q15291) pS350 RbBP5 344-357 peptide", "values": [{"measurement": "fold change", "setting": "[1]", "value": "stronger"}]}, {"molecule": "Ash2L/RbBP5^phos heterodimer (from UniProt Q9UBL3 1-628; Q15291 1-538) (complex)", "values": [{"measurement": "fold increase in binding against Ash2L/RbBP5", "setting": "[2]", "value": 5, "unit": "fold"}]}, {"molecule": "EYEERE[pS]EFDIEDE", "note": "[phosphorylated peptide RbBP5 344-357 (phospho-S350), Q15291 344-357]", "values": [{"measurement": "fold higher affinity against the unmodified peptide", "setting": "[3]", "value": 15, "unit": "fold"}]}]}
